Source: patent US20110195027A1
Several values for one entry are separate records, joined by “and”; a condition that tells them apart may be missing. Identical values can stand only once.

Tests used:
Assay in all cases: ELISA: antibody coated, supernatant, anti-His-HRP
[1] = biological target: CD9-ECL2 mutant M1 (human, with rat residues) (UniProt P21926)
[2] = biological target: CD9-ECL2 mutant M4 (human, with rat residues) (UniProt P21926)
[3] = biological target: p-Myc-His CD9-ECL2 wild type (human)
p-Myc-His CD9-ECL2 wild type (human), sequence (chain, as listed by the source limits assumed): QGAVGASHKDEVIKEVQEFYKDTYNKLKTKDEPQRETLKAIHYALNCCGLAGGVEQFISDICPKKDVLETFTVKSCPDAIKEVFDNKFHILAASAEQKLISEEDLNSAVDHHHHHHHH

CD9-ECL2 mutant M1 (human, with rat residues), sequence (P21926 other isoform, or with tags, fused parts or gaps mutant): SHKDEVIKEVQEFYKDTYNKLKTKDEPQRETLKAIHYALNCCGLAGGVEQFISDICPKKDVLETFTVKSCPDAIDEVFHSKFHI
CD9-ECL2 mutant M4 (human, with rat residues), sequence (P21926 other isoform, or with tags, fused parts or gaps mutant): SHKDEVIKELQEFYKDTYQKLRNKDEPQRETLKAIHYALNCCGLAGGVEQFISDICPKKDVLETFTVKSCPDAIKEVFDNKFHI

Row | OD490 [1] | OD490 [2] | OD490 [3] | Substance
1 | 0.054 | 0.053 | 0.056 | normal human IgG (antibody)
2 | 0.334 and 0.383 | 0.485 and 0.574 | 0.427 and 0.506 | ALB6 (anti-CD9, Beckman coulter) (antibody)
3 | 0.046 and 0.056 | 0.04 and 0.047 | 0.044 and 0.053 | normal mouse IgG (antibody)
